Results reported in US8444990.

Assays:
[1] = molecular target: soluble Her4 (Her4 receptor extracellular domain, residues 1 to 639) (human) (UniProt Q15303); assay: EIA, plate coated with sHer4, control IgG at 100 µg/ml, absorbance at 405 nm
[2] = molecular target: soluble Her3 (Her3 extracellular domain) (UniProt P21860); assay: EIA, plate coated with sHer3, control IgG at 100 µg/ml, absorbance at 405 nm
[3] = molecular target: soluble Her2 (Her2 extracellular ligand binding domain, residues 1-653, fused to the FLAG sequence) (UniProt P04626); assay: EIA, plate coated with sHer2, control IgG at 10 ng/ml, absorbance at 405 nm

Chain of UniProt P21860 (P21860 20-643 limits assumed): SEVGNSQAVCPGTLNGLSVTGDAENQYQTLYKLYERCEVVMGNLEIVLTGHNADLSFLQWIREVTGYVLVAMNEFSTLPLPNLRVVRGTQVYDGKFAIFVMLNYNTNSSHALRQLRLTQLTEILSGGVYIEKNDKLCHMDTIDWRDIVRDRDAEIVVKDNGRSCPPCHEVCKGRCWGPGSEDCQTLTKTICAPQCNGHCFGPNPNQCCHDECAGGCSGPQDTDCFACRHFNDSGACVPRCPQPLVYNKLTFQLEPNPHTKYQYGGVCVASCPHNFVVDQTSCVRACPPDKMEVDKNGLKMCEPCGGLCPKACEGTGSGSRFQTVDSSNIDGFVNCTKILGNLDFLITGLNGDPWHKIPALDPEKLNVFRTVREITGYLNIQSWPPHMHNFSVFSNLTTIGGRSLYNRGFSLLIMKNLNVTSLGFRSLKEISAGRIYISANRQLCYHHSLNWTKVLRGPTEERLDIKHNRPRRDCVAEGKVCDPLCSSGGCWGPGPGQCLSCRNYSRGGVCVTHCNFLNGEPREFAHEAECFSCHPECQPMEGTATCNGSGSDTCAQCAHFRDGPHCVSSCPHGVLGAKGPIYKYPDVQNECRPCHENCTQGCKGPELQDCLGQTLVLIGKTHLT
Chain of UniProt Q15303 (Q15303 other isoform, or with tags, fused parts or gaps limits assumed, form in doubt): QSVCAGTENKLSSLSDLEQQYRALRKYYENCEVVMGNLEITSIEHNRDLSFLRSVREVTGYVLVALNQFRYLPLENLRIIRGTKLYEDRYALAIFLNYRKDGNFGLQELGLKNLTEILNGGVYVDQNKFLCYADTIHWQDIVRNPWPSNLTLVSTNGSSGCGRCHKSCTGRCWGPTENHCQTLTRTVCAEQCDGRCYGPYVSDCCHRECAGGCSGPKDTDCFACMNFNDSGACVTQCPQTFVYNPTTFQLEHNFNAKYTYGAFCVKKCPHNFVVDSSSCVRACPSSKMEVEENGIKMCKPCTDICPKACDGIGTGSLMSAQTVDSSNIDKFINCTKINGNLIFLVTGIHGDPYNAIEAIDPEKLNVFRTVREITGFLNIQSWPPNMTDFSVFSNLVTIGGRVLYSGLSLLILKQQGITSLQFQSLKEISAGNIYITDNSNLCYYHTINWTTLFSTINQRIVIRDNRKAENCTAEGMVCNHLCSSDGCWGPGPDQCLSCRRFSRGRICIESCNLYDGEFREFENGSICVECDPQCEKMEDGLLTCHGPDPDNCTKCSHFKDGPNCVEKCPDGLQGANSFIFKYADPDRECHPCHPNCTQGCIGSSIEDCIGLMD

Mouse IgG (antibody) showed an O.D. of 100 ug/ml [1] of 0.9 O.D, an O.D. of 100 ug/ml [2] of 1.2 O.D and an O.D. of 10 ng/ml [3] of 0.09 O.D.
